The supplement of paper PMC9112550, “Optimization of the antimicrobial peptide Bac7 by deep mutational scanning” (BMC Biology, 2022)

System: Escherichia coli TOP10
Experiment: shrunken log2 fold change of peptide-encoding DNA abundance (4.5 h post-induction vs induction); higher = less antimicrobial activity (less host growth inhibition)
Details: time post-induction: 4.5 h; library: site-saturation at positions 5, 18, 19, 20
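Further: peptides expressed intracellularly from a pBAD plasmid library in pooled LB shake-flask culture, induced with 0.3% L-arabinose, DNA abundance read by NGS, three biological replicates, DESeq2 with apeglm shrinkage.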

Sequence	shrunken log2 fold change
RRIRTRPPRLPRPRPRPRRWPRP	-0.0464
RRIRTRPPRLPRPRPRPRSYPRP	0.0838
RRIRTRPPRLPRPRPRPRTHPRP	-0.0753
RRIRTRPPRLPRPRPRPRTIPRP	0.0752
RRIRTRPPRLPRPRPRPRVFPRP	0.212
RRIRTRPPRLPRPRPRPRWGPRP	0.164
RRIRTRPPRLPRPRPRPRYTPRP	0.0216
RRIRTRPPRLPRPRPRPRYYPRP	-0.112
RRIRTRPPRLPRPRPRPSCCPRP	-0.341
RRIRTRPPRLPRPRPRPSCKPRP	-0.885
RRIRTRPPRLPRPRPRPSDIPRP	-0.0989
RRIRTRPPRLPRPRPRPSDLPRP	-0.0743
RRIRTRPPRLPRPRPRPSDSPRP	-0.214
RRIRTRPPRLPRPRPRPSEQPRP	0.0636
RRIRTRPPRLPRPRPRPSEYPRP	-0.0517
RRIRTRPPRLPRPRPRPSFNPRP	-0.507
RRIRTRPPRLPRPRPRPSGHPRP	-0.17
RRIRTRPPRLPRPRPRPSGQPRP	0.0245
RRIRTRPPRLPRPRPRPSHEPRP	-0.299
RRIRTRPPRLPRPRPRPSIDPRP	-0.397
RRIRTRPPRLPRPRPRPSIIPRP	-0.647
RRIRTRPPRLPRPRPRPSIKPRP	-0.556
RRIRTRPPRLPRPRPRPSMHPRP	-0.152
RRIRTRPPRLPRPRPRPSMRPRP	-0.107
RRIRTRPPRLPRPRPRPSNCPRP	-0.414

Sequence	shrunken log2 fold change
RRIRTRPPRLPRPRPRPSNFPRP	-0.0603
RRIRTRPPRLPRPRPRPSNGPRP	-0.126
RRIRTRPPRLPRPRPRPSNPPRP	-0.663
RRIRTRPPRLPRPRPRPSNQPRP	-0.14
RRIRTRPPRLPRPRPRPSNTPRP	-0.732
RRIRTRPPRLPRPRPRPSPWPRP	-0.114
RRIRTRPPRLPRPRPRPSPYPRP	-0.573
RRIRTRPPRLPRPRPRPSQDPRP	-0.355
RRIRTRPPRLPRPRPRPSQTPRP	-0.169
RRIRTRPPRLPRPRPRPSRIPRP	-0.179
RRIRTRPPRLPRPRPRPSSVPRP	-0.139
RRIRTRPPRLPRPRPRPSTIPRP	-0.386
RRIRTRPPRLPRPRPRPSVMPRP	-0.372
RRIRTRPPRLPRPRPRPSVRPRP	-0.155
RRIRTRPPRLPRPRPRPSYMPRP	-1.28
RRIRTRPPRLPRPRPRPSYPPRP	-1.08
RRIRTRPPRLPRPRPRPTCEPRP	0.125
RRIRTRPPRLPRPRPRPTCRPRP	-0.0601
RRIRTRPPRLPRPRPRPTDGPRP	-0.0714
RRIRTRPPRLPRPRPRPTDIPRP	0.0221
RRIRTRPPRLPRPRPRPTEMPRP	0.3
RRIRTRPPRLPRPRPRPTESPRP	-0.0539
RRIRTRPPRLPRPRPRPTFIPRP	-0.39
RRIRTRPPRLPRPRPRPTFPPRP	-0.0187
RRIRTRPPRLPRPRPRPTFWPRP	0.467

Sequence	shrunken log2 fold change
RRIRTRPPRLPRPRPRPTGFPRP	-0.0124
RRIRTRPPRLPRPRPRPTHVPRP	0.122
RRIRTRPPRLPRPRPRPTLFPRP	-0.113
RRIRTRPPRLPRPRPRPTSDPRP	0.0524
RRIRTRPPRLPRPRPRPTSQPRP	-0.00402
RRIRTRPPRLPRPRPRPTTAPRP	0.0738
RRIRTRPPRLPRPRPRPTTHPRP	0.05
RRIRTRPPRLPRPRPRPTTWPRP	-0.0444
RRIRTRPPRLPRPRPRPTYMPRP	-0.32
RRIRTRPPRLPRPRPRPTYTPRP	-0.496
RRIRTRPPRLPRPRPRPTYVPRP	-0.163
RRIRTRPPRLPRPRPRPVAPPRP	0.389
RRIRTRPPRLPRPRPRPVCHPRP	-0.173
RRIRTRPPRLPRPRPRPVCYPRP	-0.531
RRIRTRPPRLPRPRPRPVDWPRP	0.0292
RRIRTRPPRLPRPRPRPVESPRP	0.141
RRIRTRPPRLPRPRPRPVFHPRP	-0.136
RRIRTRPPRLPRPRPRPVGAPRP	0.327
RRIRTRPPRLPRPRPRPVIGPRP	0.13
RRIRTRPPRLPRPRPRPVKQPRP	-0.00945
RRIRTRPPRLPRPRPRPVLFPRP	-0.193
RRIRTRPPRLPRPRPRPVNTPRP	-0.103
RRIRTRPPRLPRPRPRPVPFPRP	0.0392
RRIRTRPPRLPRPRPRPVQIPRP	-0.0381
RRIRTRPPRLPRPRPRPVRCPRP	0.382

Sequence	shrunken log2 fold change
RRIRTRPPRLPRPRPRPVRHPRP	-0.041
RRIRTRPPRLPRPRPRPVSCPRP	-0.206
RRIRTRPPRLPRPRPRPVSLPRP	-0.298
RRIRTRPPRLPRPRPRPVVEPRP	0.0529
RRIRTRPPRLPRPRPRPVVFPRP	-0.184
RRIRTRPPRLPRPRPRPVWAPRP	0.237
RRIRTRPPRLPRPRPRPVWLPRP	-0.101
RRIRTRPPRLPRPRPRPVWYPRP	-0.456
RRIRTRPPRLPRPRPRPWAQPRP	0.0456
RRIRTRPPRLPRPRPRPWCAPRP	-0.203
RRIRTRPPRLPRPRPRPWCIPRP	-0.19
RRIRTRPPRLPRPRPRPWCQPRP	-0.134
RRIRTRPPRLPRPRPRPWCRPRP	-0.263
RRIRTRPPRLPRPRPRPWEHPRP	-0.069
RRIRTRPPRLPRPRPRPWFWPRP	0.0569
RRIRTRPPRLPRPRPRPWGKPRP	0.201
RRIRTRPPRLPRPRPRPWGSPRP	0.0639
RRIRTRPPRLPRPRPRPWHHPRP	0.0255
RRIRTRPPRLPRPRPRPWHRPRP	-0.126
RRIRTRPPRLPRPRPRPWHYPRP	-0.268
RRIRTRPPRLPRPRPRPWIDPRP	-0.0368
RRIRTRPPRLPRPRPRPWIEPRP	-0.042
RRIRTRPPRLPRPRPRPWIKPRP	-0.231
RRIRTRPPRLPRPRPRPWMAPRP	-0.295
RRIRTRPPRLPRPRPRPWPGPRP	0.0416

Sequence	shrunken log2 fold change
RRIRTRPPRLPRPRPRPWWHPRP	-0.279
RRIRTRPPRLPRPRPRPWYAPRP	-0.521
RRIRTRPPRLPRPRPRPWYEPRP	-0.145
RRIRTRPPRLPRPRPRPWYLPRP	-0.0692
RRIRTRPPRLPRPRPRPWYSPRP	-0.818
RRIRTRPPRLPRPRPRPYCNPRP	-1.32
RRIRTRPPRLPRPRPRPYDNPRP	-0.141
RRIRTRPPRLPRPRPRPYFPPRP	-0.995
RRIRTRPPRLPRPRPRPYFTPRP	-1.11
RRIRTRPPRLPRPRPRPYGRPRP	-0.27
RRIRTRPPRLPRPRPRPYHHPRP	-0.59
RRIRTRPPRLPRPRPRPYIAPRP	-0.476
RRIRTRPPRLPRPRPRPYIFPRP	-0.947
RRIRTRPPRLPRPRPRPYIGPRP	-0.119
RRIRTRPPRLPRPRPRPYIQPRP	-0.274
RRIRTRPPRLPRPRPRPYKAPRP	-1.77
RRIRTRPPRLPRPRPRPYLAPRP	-0.378
RRIRTRPPRLPRPRPRPYLCPRP	-0.189
RRIRTRPPRLPRPRPRPYMNPRP	-0.895
RRIRTRPPRLPRPRPRPYNPPRP	-0.224
RRIRTRPPRLPRPRPRPYPRPRP	-0.0911
RRIRTRPPRLPRPRPRPYQIPRP	-0.0573
RRIRTRPPRLPRPRPRPYQYPRP	-0.546
RRIRTRPPRLPRPRPRPYSGPRP	-0.00196
RRIRTRPPRLPRPRPRPYTKPRP	-0.248

Sequence	shrunken log2 fold change
RRIRTRPPRLPRPRPRPYYQPRP	-0.122
RRIRVRPPRLPRPRPRPAACPRP	0.244
RRIRVRPPRLPRPRPRPACQPRP	0.168
RRIRVRPPRLPRPRPRPADFPRP	0.0696
RRIRVRPPRLPRPRPRPADQPRP	0.0278
RRIRVRPPRLPRPRPRPADYPRP	0.0436
RRIRVRPPRLPRPRPRPAEKPRP	0.00294
RRIRVRPPRLPRPRPRPAEMPRP	0.0714
RRIRVRPPRLPRPRPRPAESPRP	0.0613
RRIRVRPPRLPRPRPRPAFHPRP	-0.208
RRIRVRPPRLPRPRPRPAGWPRP	0.689
RRIRVRPPRLPRPRPRPAGYPRP	-0.0144
RRIRVRPPRLPRPRPRPAHCPRP	0.122
RRIRVRPPRLPRPRPRPAHYPRP	-0.113
RRIRVRPPRLPRPRPRPAIFPRP	0.0175
RRIRVRPPRLPRPRPRPAIMPRP	0.191
RRIRVRPPRLPRPRPRPAIQPRP	-0.0625
RRIRVRPPRLPRPRPRPAKLPRP	0.139
RRIRVRPPRLPRPRPRPAKSPRP	-0.112
RRIRVRPPRLPRPRPRPALQPRP	0.0743
RRIRVRPPRLPRPRPRPAMEPRP	-0.139
RRIRVRPPRLPRPRPRPAMGPRP	0.34
RRIRVRPPRLPRPRPRPAMRPRP	0.6
RRIRVRPPRLPRPRPRPAMTPRP	0.0589
RRIRVRPPRLPRPRPRPAPAPRP	0.626
